Here are results for two molecules from publication PMC7447803, “DEPS-1 is required for piRNA-dependent silencing and PIWI condensate organisation in Caenorhabditis elegans” (Nature Communications, 2020).

Assay in all cases: MST; one partner labelled with atto-488 NHS ester at a constant amount, unlabelled partner serially diluted 1:2; 30 mM HEPES pH 7.5, 100 mM K-Ac, 2 mM Mg-Ac, 14 mM BME, 0.01% NP-40; apparent Kd by the law of mass action
For experiment [1], the target named is MBP-tagged full-length DEPS-1 (C. elegans) (UniProt Q9N303).
Experiment [2] deals with N-terminal fragment of DEPS-1 (DEPS-1^frag1) (C. elegans) (UniProt Q9N303).
Experiment [3] deals with DEPS-1 PBS motif peptide (C. elegans).
Experiment [4] deals with T1, MBP-tagged full-length PRG-1 (C. elegans, UniProt P90786 1-824, Atto-594 label (in the cluster imaging only)).
T1 construct: PRG-1, the PIWI protein of C. elegans, full length; Cloned into pMAL-C5X; Unlabelled in the MST titration; also called MBP-PRG-1; MBP-PRG; source: E. coli BL21 (DE3), purified (RNaseA-treated lysate, amylose resin, size-exclusion chromatography)
T1 sequence (looked up): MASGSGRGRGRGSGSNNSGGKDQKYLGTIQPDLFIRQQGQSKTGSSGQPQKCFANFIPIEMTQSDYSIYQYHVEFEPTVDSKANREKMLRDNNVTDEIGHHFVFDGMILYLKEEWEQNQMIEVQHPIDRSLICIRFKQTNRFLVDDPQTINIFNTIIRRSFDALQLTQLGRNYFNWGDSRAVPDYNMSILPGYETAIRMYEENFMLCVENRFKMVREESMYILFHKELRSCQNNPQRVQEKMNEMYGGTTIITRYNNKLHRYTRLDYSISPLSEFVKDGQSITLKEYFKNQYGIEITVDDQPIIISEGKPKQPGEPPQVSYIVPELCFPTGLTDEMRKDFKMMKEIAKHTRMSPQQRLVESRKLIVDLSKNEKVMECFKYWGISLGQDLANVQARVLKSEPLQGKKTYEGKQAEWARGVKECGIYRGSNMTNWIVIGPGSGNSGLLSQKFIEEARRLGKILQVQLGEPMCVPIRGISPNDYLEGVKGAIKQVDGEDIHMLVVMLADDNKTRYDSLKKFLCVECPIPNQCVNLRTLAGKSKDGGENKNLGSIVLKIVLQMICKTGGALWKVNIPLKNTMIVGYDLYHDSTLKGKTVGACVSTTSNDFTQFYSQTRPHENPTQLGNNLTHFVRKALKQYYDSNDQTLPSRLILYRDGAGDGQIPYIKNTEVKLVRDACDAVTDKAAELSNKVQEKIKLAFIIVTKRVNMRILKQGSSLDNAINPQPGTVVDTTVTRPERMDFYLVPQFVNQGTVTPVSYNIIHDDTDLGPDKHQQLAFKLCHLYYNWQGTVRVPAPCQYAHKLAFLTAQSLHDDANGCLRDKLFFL
Particulars: both partners purified.

Take “MBP-tagged PRG-1 PIWI domain (from UniProt P90786 1-824) (domain or fragment)”: the Kd in experiment [1] amounted to 349 nM; in experiment [2] it was 151 nM; in experiment [3], 1900 nM.

B1: MBP-tagged full-length DEPS-1 (natural protein, C. elegans, UniProt Q9N303 1-619, looked up)
chain: MSERQSKYFDYQGIVISSTGQDNQDSETDLVYLIQAHGKAAPKNIMYGVSKCAFVPTNLERNFDNIEEAKNLERRSKIPLKFGEVILWNESDCDHDKRIILHIKREKPIYEASSSRNGLILKVGGVIQPTSTTSFWTPLCTVTMPETEATRAEPDVWLYAWIRFETTMKSGLDPFNMTATFESFDSCDPSDQARVCEAPWNAGSPDSKFGVWRPDPKPADSDDEIDIEPREGWHLPEDKWAEVIKMQLGLYVGERLLICKELSQFDFIIPLQKPFSRGTDKTLIYPAVGEYFHFSAIWSMQHNGFLIYELQPVPLLRQHVTSVNGNLLTRVVPASIRGLFVDKEGTLGLIDDPHHLLSFFEFHPAGYEFLKAMAEVRAVRTSENKSVRYRIVRTSGMSIFENWLRDTQFVVGPVKGIRINEDTVICAKHPNVYFKIPNNLKEGIPIGGGVQFVGKRQAGVDSEIMITECSPCPAFTCKNYSVSGDTRLFQVYLKPNCDHEQLAESDSMGFVDFRELETPCRGKFLAWVRESITVNDCRRAATIMEVCSTAICPPLIAMSANSSRATSARTTPAGSSIGSRSSIQSRASAATSVSSNRFVGPSSRRTPSGTPQSSTSSRV
modifications: atto-488 NHS ester label
notes: DEPS-1 (Defective P granules and Sterile-1), C. elegans P granule protein, full length; Cloned into pMAL-C5X; Labelled partner (10 nM) in the MST with MBP-PRG-1; also called MBP-DEPS-1; Defective P granules and Sterile-1; source: E. coli BL21 (DE3), purified (RNaseA-treated lysate, amylose resin, size-exclusion chromatography)
Consider B1, for which, in experiment [4], the Kd worked out at 855 ± 133 nM.
